Results as given in the supplement of paper PMC10567573.

B1: NR2F2 (parent)
chain: VAHVESLQEKSQCALEEYVRSQYP
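Further: lentivirally expressed fusions sorted by FACS into six bins by GFP to DsRed ratio, PSI derived from sequencing read proportions per bin multiplied by bin number.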

Variants of: B1
Assay: protein stability index of a GFP-peptide fusion (GPS, HEK-293T) (PSI 1-6); higher = more stable
Conditions: c terminus: a fixed tail appended
For VAHVESLGEKSQCALEEYVRSQYP [Q8G], the protein stability index was 3.56. VAHVESLHEKSQCALEEYVRSQYP [Q8H] showed a protein stability index of 3.49. Work on VAHVESLIEKSQCALEEYVRSQYP [Q8I] yielded a protein stability index of 2.83. Variant VAHVESLKEKSQCALEEYVRSQYP [Q8K] has a protein stability index of 3.88. With VAHVESLLEKSQCALEEYVRSQYP [Q8L] the protein stability index was 2.89. Work on VAHVESLMEKSQCALEEYVRSQYP [Q8M] yielded a protein stability index of 2.98. In the case of VAHVESLNEKSQCALEEYVRSQYP [Q8N], the protein stability index is reported as 3.75. Work on VAHVESLPEKSQCALEEYVRSQYP [Q8P] yielded a protein stability index of 3.45. With VAHVESLREKSQCALEEYVRSQYP [Q8R] the protein stability index was 3.68. For VAHVESLSEKSQCALEEYVRSQYP [Q8S], the protein stability index was 3.48. Work on VAHVESLTEKSQCALEEYVRSQYP [Q8T] yielded a protein stability index of 3.53. With VAHVESLVEKSQCALEEYVRSQYP [Q8V] the protein stability index was 3.02. VAHVESLWEKSQCALEEYVRSQYP [Q8W] showed a protein stability index of 2.27. VAHVESLYEKSQCALEEYVRSQYP [Q8Y] showed a protein stability index of 2.73. Work on VAHVESLQAKSQCALEEYVRSQYP [E9A] yielded a protein stability index of 2.55. In the case of VAHVESLQCKSQCALEEYVRSQYP [E9C], the protein stability index is reported as 1.85. With VAHVESLQDKSQCALEEYVRSQYP [E9D] the protein stability index was 3.59. VAHVESLQFKSQCALEEYVRSQYP [E9F] showed a protein stability index of 2.13. VAHVESLQGKSQCALEEYVRSQYP [E9G] gave a protein stability index of 2.89. VAHVESLQHKSQCALEEYVRSQYP [E9H] gave a protein stability index of 3.23. In the case of VAHVESLQIKSQCALEEYVRSQYP [E9I], the protein stability index is reported as 1.83. For VAHVESLQKKSQCALEEYVRSQYP [E9K], the protein stability index was 3.11. With VAHVESLQLKSQCALEEYVRSQYP [E9L] the protein stability index was 2.64. With VAHVESLQMKSQCALEEYVRSQYP [E9M] the protein stability index was 2.2. VAHVESLQNKSQCALEEYVRSQYP [E9N] showed a protein stability index of 3.05. With VAHVESLQPKSQCALEEYVRSQYP [E9P] the protein stability index was 2.68. For VAHVESLQQKSQCALEEYVRSQYP [E9Q], the protein stability index was 2.62. VAHVESLQRKSQCALEEYVRSQYP [E9R] showed a protein stability index of 2.53. Work on VAHVESLQSKSQCALEEYVRSQYP [E9S] yielded a protein stability index of 2.73. For VAHVESLQTKSQCALEEYVRSQYP [E9T], the protein stability index was 3.11. VAHVESLQVKSQCALEEYVRSQYP [E9V] gave a protein stability index of 2.72. VAHVESLQWKSQCALEEYVRSQYP [E9W] showed a protein stability index of 2.27. With VAHVESLQYKSQCALEEYVRSQYP [E9Y] the protein stability index was 2.77. Work on VAHVESLQEASQCALEEYVRSQYP [K10A] yielded a protein stability index of 3.45. VAHVESLQECSQCALEEYVRSQYP [K10C] showed a protein stability index of 2.54. For VAHVESLQEDSQCALEEYVRSQYP [K10D], the protein stability index was 4.32. With VAHVESLQEESQCALEEYVRSQYP [K10E] the protein stability index was 4.48. Variant VAHVESLQEFSQCALEEYVRSQYP [K10F] has a protein stability index of 2.08. Variant VAHVESLQEGSQCALEEYVRSQYP [K10G] has a protein stability index of 3.81. For VAHVESLQEHSQCALEEYVRSQYP [K10H], the protein stability index was 3.7. VAHVESLQEISQCALEEYVRSQYP [K10I] gave a protein stability index of 2.58. For VAHVESLQELSQCALEEYVRSQYP [K10L], the protein stability index was 3.07. In the case of VAHVESLQEMSQCALEEYVRSQYP [K10M], the protein stability index is reported as 2.97. VAHVESLQENSQCALEEYVRSQYP [K10N] gave a protein stability index of 3.98. Work on VAHVESLQEPSQCALEEYVRSQYP [K10P] yielded a protein stability index of 3.37. For VAHVESLQEQSQCALEEYVRSQYP [K10Q], the protein stability index was 3.83. With VAHVESLQERSQCALEEYVRSQYP [K10R] the protein stability index was 4.09. For VAHVESLQESSQCALEEYVRSQYP [K10S], the protein stability index was 3.76. With VAHVESLQETSQCALEEYVRSQYP [K10T] the protein stability index was 3.92. In the case of VAHVESLQEVSQCALEEYVRSQYP [K10V], the protein stability index is reported as 3.49. Variant VAHVESLQEWSQCALEEYVRSQYP [K10W] has a protein stability index of 2.96. For VAHVESLQEYSQCALEEYVRSQYP [K10Y], the protein stability index was 2.63. Work on VAHVESLQEKAQCALEEYVRSQYP [S11A] yielded a protein stability index of 4.05. In the case of VAHVESLQEKCQCALEEYVRSQYP [S11C], the protein stability index is reported as 3.37. For VAHVESLQEKDQCALEEYVRSQYP [S11D], the protein stability index was 4.5. VAHVESLQEKEQCALEEYVRSQYP [S11E] gave a protein stability index of 4.36. Variant VAHVESLQEKFQCALEEYVRSQYP [S11F] has a protein stability index of 1.78. For VAHVESLQEKGQCALEEYVRSQYP [S11G], the protein stability index was 4.07. In the case of VAHVESLQEKHQCALEEYVRSQYP [S11H], the protein stability index is reported as 3.59. Work on VAHVESLQEKIQCALEEYVRSQYP [S11I] yielded a protein stability index of 2.8. Work on VAHVESLQEKKQCALEEYVRSQYP [S11K] yielded a protein stability index of 3.41. VAHVESLQEKLQCALEEYVRSQYP [S11L] gave a protein stability index of 3.2. VAHVESLQEKMQCALEEYVRSQYP [S11M] showed a protein stability index of 2.54. Variant VAHVESLQEKNQCALEEYVRSQYP [S11N] has a protein stability index of 3.88. VAHVESLQEKPQCALEEYVRSQYP [S11P] showed a protein stability index of 4.04. With VAHVESLQEKQQCALEEYVRSQYP [S11Q] the protein stability index was 2.97. In the case of VAHVESLQEKRQCALEEYVRSQYP [S11R], the protein stability index is reported as 3.12. For VAHVESLQEKTQCALEEYVRSQYP [S11T], the protein stability index was 3.53. Work on VAHVESLQEKVQCALEEYVRSQYP [S11V] yielded a protein stability index of 2.48. For VAHVESLQEKWQCALEEYVRSQYP [S11W], the protein stability index was 2.61. Work on VAHVESLQEKYQCALEEYVRSQYP [S11Y] yielded a protein stability index of 2.36. Variant VAHVESLQEKSACALEEYVRSQYP [Q12A] has a protein stability index of 3.33. With VAHVESLQEKSCCALEEYVRSQYP [Q12C] the protein stability index was 2.45. For VAHVESLQEKSDCALEEYVRSQYP [Q12D], the protein stability index was 4.32. Work on VAHVESLQEKSECALEEYVRSQYP [Q12E] yielded a protein stability index of 4.6. Variant VAHVESLQEKSFCALEEYVRSQYP [Q12F] has a protein stability index of 2.86. Work on VAHVESLQEKSGCALEEYVRSQYP [Q12G] yielded a protein stability index of 3.7. VAHVESLQEKSHCALEEYVRSQYP [Q12H] gave a protein stability index of 2.88. Variant VAHVESLQEKSICALEEYVRSQYP [Q12I] has a protein stability index of 2.49. Variant VAHVESLQEKSKCALEEYVRSQYP [Q12K] has a protein stability index of 3.76. Variant VAHVESLQEKSLCALEEYVRSQYP [Q12L] has a protein stability index of 2.68. In the case of VAHVESLQEKSMCALEEYVRSQYP [Q12M], the protein stability index is reported as 2.99. VAHVESLQEKSNCALEEYVRSQYP [Q12N] showed a protein stability index of 3.54. For VAHVESLQEKSPCALEEYVRSQYP [Q12P], the protein stability index was 3.12. In the case of VAHVESLQEKSRCALEEYVRSQYP [Q12R], the protein stability index is reported as 3.77. In the case of VAHVESLQEKSSCALEEYVRSQYP [Q12S], the protein stability index is reported as 2.77. VAHVESLQEKSTCALEEYVRSQYP [Q12T] showed a protein stability index of 2.88. Variant VAHVESLQEKSVCALEEYVRSQYP [Q12V] has a protein stability index of 2.83. VAHVESLQEKSWCALEEYVRSQYP [Q12W] showed a protein stability index of 2.64. VAHVESLQEKSYCALEEYVRSQYP [Q12Y] showed a protein stability index of 2.55. Variant VAHVESLQEKSQAALEEYVRSQYP [C13A] has a protein stability index of 4.7. Work on VAHVESLQEKSQDALEEYVRSQYP [C13D] yielded a protein stability index of 4.36. With VAHVESLQEKSQEALEEYVRSQYP [C13E] the protein stability index was 4.91. With VAHVESLQEKSQFALEEYVRSQYP [C13F] the protein stability index was 3.58.
